Test results taken from patent publication US20100210517A1.
pEC50: −log10 of the molar value.

What was measured:
LRP2 CR89 Y1042W (human) = LRP2 CR89 Y1042W (human) (UniProt P98164); assay: solid-phase assay; OD at the highest ligand concentration as percent of the highest OD of all ligands
[1] = biological target: recombinant human LRP1 ligand binding cluster II (amino acids 786-1165, C-terminal Fc) (human); assay: inhibitor pre-incubated with coated LRP1 cluster II-Fc, washed, then RAP d3 added; inhibition of RAP d3 binding
Sequence of recombinant human LRP1 ligand binding cluster II (amino acids 786-1165, C-terminal Fc) (human) (Q07954 786-1165): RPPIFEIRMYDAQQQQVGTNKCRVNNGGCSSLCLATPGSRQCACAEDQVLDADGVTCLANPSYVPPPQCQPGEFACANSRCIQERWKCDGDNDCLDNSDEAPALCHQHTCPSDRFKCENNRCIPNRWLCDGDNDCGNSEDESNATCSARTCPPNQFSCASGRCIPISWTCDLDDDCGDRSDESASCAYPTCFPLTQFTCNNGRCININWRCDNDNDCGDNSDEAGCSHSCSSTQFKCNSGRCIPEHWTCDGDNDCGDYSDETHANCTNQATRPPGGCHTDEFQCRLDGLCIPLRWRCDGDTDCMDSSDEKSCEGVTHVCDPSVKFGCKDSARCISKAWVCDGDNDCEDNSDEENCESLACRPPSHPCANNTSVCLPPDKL

[2] = biological target: recombinant human LRP1 ligand binding cluster II (amino acids 786-1165, C-terminal Fc) (human); assay: competition ELISA, inhibition of RAP d3 (2 nM) binding to coated LRP1 cluster II-Fc

Sequence of mature human RAP (full-length) (P30533 35-357): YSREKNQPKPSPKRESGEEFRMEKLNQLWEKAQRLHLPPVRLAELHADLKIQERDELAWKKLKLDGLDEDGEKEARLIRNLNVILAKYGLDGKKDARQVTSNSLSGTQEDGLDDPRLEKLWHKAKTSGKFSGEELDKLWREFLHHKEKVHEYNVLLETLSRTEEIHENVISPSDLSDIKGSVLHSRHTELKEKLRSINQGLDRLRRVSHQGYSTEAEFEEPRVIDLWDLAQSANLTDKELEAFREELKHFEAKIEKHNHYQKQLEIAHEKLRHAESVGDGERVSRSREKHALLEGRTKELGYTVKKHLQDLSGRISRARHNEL
Sequence of LRP2 CR89 Y1042W (human) (P98164 1025-1102 Y1043W limits assumed): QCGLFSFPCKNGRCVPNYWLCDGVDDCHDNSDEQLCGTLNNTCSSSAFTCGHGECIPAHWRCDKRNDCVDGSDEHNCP
Sequence of RAP d3 (wild-type domain 3 of human RAP, amino acids 201-319 of mature RAP) (P30533 235-353 A264E): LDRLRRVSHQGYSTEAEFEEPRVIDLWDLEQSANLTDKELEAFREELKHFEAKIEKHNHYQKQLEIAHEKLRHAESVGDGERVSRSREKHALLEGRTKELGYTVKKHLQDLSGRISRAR

% max bind (LRP2 CR89 Y1042W (human)) [%] | pEC50 [1] | pEC50 [2] | fold better EC50 than monomeric mRAPc peptide [2] [fold] | Substance
9 |  |  |  | RAP d3 (wild-type domain 3 of human RAP, amino acids 201-319 of mature RAP) (from UniProt P30533 235-353) (ligand)
 | 9.52 | 9.30 | 64 | mature human RAP (full-length) (from UniProt P30533 35-357) (ligand)
